Source: US20120053125A1

Columns and labels:
[1] = biological target: Protein Phosphatase-1 (PP1), purified catalytic subunit (New England BioLabs) (UniProt P62139); test: cell-based or functional assay
[2] = biological target: endogenous type-1 protein phosphatase (PP1) of adult rat cardiomyocyte lysates (rat); test: cell-based or functional assay

Chain of Protein Phosphatase-1 (PP1), purified catalytic subunit (New England BioLabs) (P62139 whole entry): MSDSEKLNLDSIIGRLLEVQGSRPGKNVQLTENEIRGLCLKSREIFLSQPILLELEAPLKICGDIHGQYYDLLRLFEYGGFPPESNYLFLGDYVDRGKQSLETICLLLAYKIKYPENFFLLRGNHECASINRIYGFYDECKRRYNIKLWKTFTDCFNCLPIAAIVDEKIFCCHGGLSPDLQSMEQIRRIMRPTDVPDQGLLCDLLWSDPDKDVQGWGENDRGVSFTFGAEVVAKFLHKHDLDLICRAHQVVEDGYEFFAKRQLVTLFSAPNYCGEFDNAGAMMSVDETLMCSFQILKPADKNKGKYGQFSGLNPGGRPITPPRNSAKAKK

| Binder | IC50 of inhibition of PP1 activity (dephosphorylation of 32P-MyBP) [1] [nM] | PP1 activity remaining after PKA stimulation in infected rat cardiomyocytes [2] [fold] | increase of purified PP1c activity compared to I-1 wild-type [1] [%] | other results |
| --- | --- | --- | --- | --- |
| PKA-phosphorylated human I-1 wild type (protein, phosphothreonine at Thr-35 (phosphorylated in vitro by PKA)) MEQDNSPRKIQFTVPLLEPHLDPEAAEQIRRRRPTPATLVLTSDQSSPEIDEDRIPNPHLKSTLAMSPRQRKKMTRITPTMKELQMMVEHHLGQQQQGEEPEGAAESTGTQESRPPGIPDTEVESRLGTSGTAKKTAECIPKTHERGSKEPSTKEPSTHIPPLDSKGANSV | 3.2 |  |  |  |
| human I-1 (S67D) (protein) MEQDNSPRKIQFTVPLLEPHLDPEAAEQIRRRRPTPATLVLTSDQSSPEIDEDRIPNPHLKSTLAMDPRQRKKMTRITPTMKELQMMVEHHLGQQQQGEEPEGAAESTGTQESRPPGIPDTEVESRLGTSGTAKKTAECIPKTHERGSKEPSTKEPSTHIPPLDSKGANSV |  | 2 |  |  |
| human I-1 (S67A) phosphorylated by PKC-α (protein, phosphothreonine at Thr-75 (phosphorylated in vitro by PKC-α; 0.35 mol Pi/mol protein)) MEQDNSPRKIQFTVPLLEPHLDPEAAEQIRRRRPTPATLVLTSDQSSPEIDEDRIPNPHLKSTLAMAPRQRKKMTRITPTMKELQMMVEHHLGQQQQGEEPEGAAESTGTQESRPPGIPDTEVESRLGTSGTAKKTAECIPKTHERGSKEPSTKEPSTHIPPLDSKGANSV |  |  | 25 |  |

Continued, in another order:

| IC50 of inhibition of PP1 activity (dephosphorylation of 32P-MyBP) [1] [nM] | PP1 activity remaining after PKA stimulation in infected rat cardiomyocytes [2] [fold] | increase of purified PP1c activity compared to I-1 wild-type [1] [%] | Binder | other results |
| --- | --- | --- | --- | --- |
|  | 2 | 23 | human I-1 (T75D) (protein) MEQDNSPRKIQFTVPLLEPHLDPEAAEQIRRRRPTPATLVLTSDQSSPEIDEDRIPNPHLKSTLAMSPRQRKKMDRITPTMKELQMMVEHHLGQQQQGEEPEGAAESTGTQESRPPGIPDTEVESRLGTSGTAKKTAECIPKTHERGSKEPSTKEPSTHIPPLDSKGANSV | increase in type-1 phosphatase activity in infected rat cardiomyocyte lysates compared to Ad.I-1WT and Ad.GFP [2]: 27% |
| 4.9 |  |  | human I-1 wild type phosphorylated first by PKC-α and then by PKA (protein, phosphothreonine at Thr-35 (PKA); phosphoserine at Ser-67 and phosphothreonine at Thr-75 (PKC-α)) MEQDNSPRKIQFTVPLLEPHLDPEAAEQIRRRRPTPATLVLTSDQSSPEIDEDRIPNPHLKSTLAMSPRQRKKMTRITPTMKELQMMVEHHLGQQQQGEEPEGAAESTGTQESRPPGIPDTEVESRLGTSGTAKKTAECIPKTHERGSKEPSTKEPSTHIPPLDSKGANSV |  |
|  | 2 |  | human I-1 (S67D/T75D) (protein) MEQDNSPRKIQFTVPLLEPHLDPEAAEQIRRRRPTPATLVLTSDQSSPEIDEDRIPNPHLKSTLAMDPRQRKKMDRITPTMKELQMMVEHHLGQQQQGEEPEGAAESTGTQESRPPGIPDTEVESRLGTSGTAKKTAECIPKTHERGSKEPSTKEPSTHIPPLDSKGANSV |  |
